This is an account of results in patent US20040072743A1 (priority 2000, published 2004).

For data set [1] the following is noted: female, NMRI, mouse, in vivo.
The conditions of data set [2]: female, NMRI, mouse, in vivo, sc.

Take “H-KFFKFFKFFK-pfPhe-cha-TTCTAACATTTA-NH2 [Compound VII]”: in data set [1], the “oral bioavailability (AUC [p.o. adm]/AUC [i.v. adm])×100%” value amounted to 54%. Further, in data set [2], the “subcutaneous bioavailability (AUC [s.c.adm]/AUC [i.v. adm])×100%” value was 69%.

With “H-KFFKFFKFFK-b.cypr-g.abu-ACTTTGTCGCCA-NH2 [Compound IV]”, the “oral bioavailability (AUC [p.o. adm]/AUC [i.v. adm])×100%” value in data set [1] is 24%. Besides, in data set [2], the “subcutaneous bioavailability (AUC [s.c.adm]/AUC [i.v. adm])×100%” value is given as 78%.

Take “H-KFFKFFKFFK-g.abu-PheGly-TTCTAACATTTA-NH2 [Compound VI]”: the “oral bioavailability (AUC [p.o. adm]/AUC [i.v. adm])×100%” value in data set [1] amounted to 6%. Also, the “subcutaneous bioavailability (AUC [s.c.adm]/AUC [i.v. adm])×100%” value in data set [2] came out at 62%.

Turning to “H-KFFKFFKFFK-achc-b.Ala-TTCTAACATTTA-NH2 [Compound V]”, the “oral bioavailability (AUC [p.o. adm]/AUC [i.v. adm])×100%” value in data set [1] is recorded as 9%. Moreover, the “subcutaneous bioavailability (AUC [s.c.adm]/AUC [i.v. adm])×100%” value in data set [2] was 68%.
